Test in all cases: FRET or BRET; 2pFLIM-FRET in single dendritic spines of CA1 pyramidal neurons, organotypic hippocampal slices; train of two-photon glutamate uncaging (0.49 Hz, 30 pulses, sLTP protocol) without extracellular Mg^2+; room temperature (25–27 °C); 128 ms/frame; decay after the train fitted with a double exponential; T286A in slices of Camk2a^T286A knock-in mice
Background: In BRET a luciferase serves as donor, and the signal depends on an acceptor being close.

The target of assay [1] is mEGFP-CaMKIIα (wildtype) (Rattus norvegicus) (UniProt P11275).
The target of assay [2] is mEGFP-CaMKIIα^T305A/T306A (Rattus norvegicus) (UniProt P11275).
The target in assay [3] is mEGFP-CaMKIIα^T286A (Rattus norvegicus) (UniProt P11275).

The text below walks through data of article PMC6592955.

As for “mCherry-CaM (from UniProt P0DP26 1-149) (natural protein; other documents disagree on this pair)”, the dissociation time constant (tau fast, decay after the train) in assay [1] came to 3.2 s.
As for “mCherry-CaM (from UniProt P0DP26 1-149) (natural protein)”, the results for the dissociation time constant (tau fast, decay after the train) in assay [2] and in assay [3] were 9.3 s and 1 s, respectively.
